Test results from IntAct's records for PubMed 21203436.

B1: Protein MKS1 (Arabidopsis thaliana (Mouse-ear cress)), Q8LGD5 (parent)
chain: MDPSEYFAGGNPSDQQNQKRQLQICGPRPSPLSVHKDSHKIKKPPKHPAPPPNRDQPPPYIPREPVVIYAVSPKVVHATASEFMNVVQRLTGISSGVFLESGGGGDVSPAARLASTENASPRGGKEPAARDETVEINTAMEEAAEFGGYAPGILSPSPALLPTASTGIFSPMYHQGGMFSPAIPLGLFSPAGFMSPFRSPGFTSLVASPTFADFFSHIWDQD
partner: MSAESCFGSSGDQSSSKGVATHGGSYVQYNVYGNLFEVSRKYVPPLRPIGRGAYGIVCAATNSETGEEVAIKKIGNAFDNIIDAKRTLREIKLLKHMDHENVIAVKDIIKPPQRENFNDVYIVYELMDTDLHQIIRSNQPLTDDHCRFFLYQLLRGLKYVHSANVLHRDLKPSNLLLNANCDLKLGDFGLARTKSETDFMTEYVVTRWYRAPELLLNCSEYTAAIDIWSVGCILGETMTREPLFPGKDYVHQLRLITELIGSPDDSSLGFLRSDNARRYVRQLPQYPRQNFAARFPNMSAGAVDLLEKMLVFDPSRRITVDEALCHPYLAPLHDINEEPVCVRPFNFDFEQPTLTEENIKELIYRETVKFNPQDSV

Variants of: B1
Conditions: with mpk4_arath MPK4, Q39024

Effect of a mutation on the interaction, disrupting interaction:
MDPSEYFAGGNPSDQQNQKRQLQICGPRPSPLSVHKDAHKIKKPPKHPAPPPNRDQPPPYIPREPVVIYAVSPKVVHATASEFMNVVQRLTGISSGVFLESGGGGDVSPAARLASTENASPRGGKEPAARDETVEINTAMEEAAEFGGYAPGILSPSPALLPTASTGIFSPMYHQGGMFSPAIPLGLFSPAGFMSPFRSPGFTSLVASPTFADFFSHIWDQD [S38A]
MDPSEYFAGGNPSDQQNQKRQLQICGPRPSPLSVHKDSHAIKKPPKHPAPPPNRDQPPPYIPREPVVIYAVSPKVVHATASEFMNVVQRLTGISSGVFLESGGGGDVSPAARLASTENASPRGGKEPAARDETVEINTAMEEAAEFGGYAPGILSPSPALLPTASTGIFSPMYHQGGMFSPAIPLGLFSPAGFMSPFRSPGFTSLVASPTFADFFSHIWDQD [K40A]
MDPSEYFAGGNPSDQQNQARQLQICGPRPSPLSVHKDSHKIKKPPKHPAPPPNRDQPPPYIPREPVVIYAVSPKVVHATASEFMNVVQRLTGISSGVFLESGGGGDVSPAARLASTENASPRGGKEPAARDETVEINTAMEEAAEFGGYAPGILSPSPALLPTASTGIFSPMYHQGGMFSPAIPLGLFSPAGFMSPFRSPGFTSLVASPTFADFFSHIWDQD [K19A]
MDPSEYFAGGNPSDQQNQKRQLQICGPAPSPLSVHKDSHKIKKPPKHPAPPPNRDQPPPYIPREPVVIYAVSPKVVHATASEFMNVVQRLTGISSGVFLESGGGGDVSPAARLASTENASPRGGKEPAARDETVEINTAMEEAAEFGGYAPGILSPSPALLPTASTGIFSPMYHQGGMFSPAIPLGLFSPAGFMSPFRSPGFTSLVASPTFADFFSHIWDQD [R28A]
MDPSEYFAGGNPSDQQNQKRQLQICGPRASPLSVHKDSHKIKKPPKHPAPPPNRDQPPPYIPREPVVIYAVSPKVVHATASEFMNVVQRLTGISSGVFLESGGGGDVSPAARLASTENASPRGGKEPAARDETVEINTAMEEAAEFGGYAPGILSPSPALLPTASTGIFSPMYHQGGMFSPAIPLGLFSPAGFMSPFRSPGFTSLVASPTFADFFSHIWDQD [P29A]
MDPSEYFAGGNPSDQQNQKRQLQICGPRPSPASVHKDSHKIKKPPKHPAPPPNRDQPPPYIPREPVVIYAVSPKVVHATASEFMNVVQRLTGISSGVFLESGGGGDVSPAARLASTENASPRGGKEPAARDETVEINTAMEEAAEFGGYAPGILSPSPALLPTASTGIFSPMYHQGGMFSPAIPLGLFSPAGFMSPFRSPGFTSLVASPTFADFFSHIWDQD [L32A]
